Broadly, the Kd is the free concentration of one partner at which half of the binding sites on the other are occupied at equilibrium, for simple one-to-one binding.

The text below walks through data of PMC12175901.

Assay [1] deals with HIV-1 capsid capsid (Human immunodeficiency virus 1) (UniProt O93182). As to conditions: cited from earlier work.
The target in assay [2] is full-length BicD2 (zz-TEV-Halo-hBicD2^FL-6×His) (human) (UniProt Q8TD16). Briefly: TIRF microtubule recruitment assay; Nup358^min-zip labeled at 488 nm, full-length hBicD2, dynein and dynactin (1:1:2:2), 10 nM dynein; with all, or without dynein or BicD2; microtubules labeled with Alexa Fluor 647.
Assay [3] has as its target recombinant human cytoplasmic dynein (full-length dynein complex) (human) (UniProt Q14204). Briefly: TIRF microtubule recruitment assay.
The target is the same in assay [4]. Kind of assay: single-molecule TIRF colocalization.
Assay [5] deals with purified HIV-1 cores labelled with GFP-Vpr (HIV-1) (UniProt P12520). Briefly: TIRF fluorescence intensity against a standard curve.
Sequence of purified HIV-1 cores labelled with GFP-Vpr (HIV-1) (P12520 whole entry, looked up): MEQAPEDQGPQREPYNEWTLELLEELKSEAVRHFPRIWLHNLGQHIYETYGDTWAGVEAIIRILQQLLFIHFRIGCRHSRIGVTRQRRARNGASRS

Sequence of purified HIV-1 cores labelled with GFP-Vpr (P12520 whole entry, looked up): as above
Sequence of full-length BicD2 (zz-TEV-Halo-hBicD2^FL-6×His) (human) (Q8TD16 whole entry): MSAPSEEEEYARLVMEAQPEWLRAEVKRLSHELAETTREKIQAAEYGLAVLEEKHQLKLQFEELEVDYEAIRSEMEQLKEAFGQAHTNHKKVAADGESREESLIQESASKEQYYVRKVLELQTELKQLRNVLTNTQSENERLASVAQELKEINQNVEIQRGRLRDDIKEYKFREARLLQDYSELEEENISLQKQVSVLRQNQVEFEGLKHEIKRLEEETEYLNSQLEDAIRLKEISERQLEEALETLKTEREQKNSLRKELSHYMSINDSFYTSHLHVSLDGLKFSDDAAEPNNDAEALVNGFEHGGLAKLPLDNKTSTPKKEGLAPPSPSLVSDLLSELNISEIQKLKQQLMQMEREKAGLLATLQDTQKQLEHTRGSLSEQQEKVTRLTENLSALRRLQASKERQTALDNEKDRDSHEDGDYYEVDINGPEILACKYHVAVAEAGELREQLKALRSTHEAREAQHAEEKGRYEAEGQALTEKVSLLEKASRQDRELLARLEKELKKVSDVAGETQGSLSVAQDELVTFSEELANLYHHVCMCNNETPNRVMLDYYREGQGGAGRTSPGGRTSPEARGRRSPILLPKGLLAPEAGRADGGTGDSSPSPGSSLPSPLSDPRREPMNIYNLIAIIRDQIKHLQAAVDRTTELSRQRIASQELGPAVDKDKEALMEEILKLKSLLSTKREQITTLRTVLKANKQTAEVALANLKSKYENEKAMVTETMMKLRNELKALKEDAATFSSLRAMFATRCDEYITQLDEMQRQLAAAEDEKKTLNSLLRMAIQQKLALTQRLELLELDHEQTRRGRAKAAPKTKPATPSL
Sequence of HIV-1 capsid capsid (Human immunodeficiency virus 1) (O93182 133-363): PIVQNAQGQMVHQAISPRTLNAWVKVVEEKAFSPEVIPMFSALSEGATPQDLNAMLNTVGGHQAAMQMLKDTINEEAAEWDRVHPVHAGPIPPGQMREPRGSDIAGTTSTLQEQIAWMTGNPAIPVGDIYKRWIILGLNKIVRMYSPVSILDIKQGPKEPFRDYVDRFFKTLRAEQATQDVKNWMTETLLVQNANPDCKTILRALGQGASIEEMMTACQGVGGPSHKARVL
Sequence of CypA (P62937 2-165): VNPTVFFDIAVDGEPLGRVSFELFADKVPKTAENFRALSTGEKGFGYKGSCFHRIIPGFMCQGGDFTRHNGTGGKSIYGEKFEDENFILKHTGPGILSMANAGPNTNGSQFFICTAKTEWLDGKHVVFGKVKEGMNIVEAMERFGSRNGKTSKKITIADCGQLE

As for CypA (from UniProt P62937), in assay [1], the Kd is greater than 13 µM.

With “Nup358^min-zip [hNup358(2148 to 2240)-GCN4-SnapTag] (from UniProt P49792 2148-2240)”, in assay [2], the fold loss of microtubule recruitment when BicD2 is left out was 15 fold.

Regarding “purified HIV-1 cores labelled with GFP-Vpr (from UniProt P12520 1-96) (complex)”, in assay [3], the fold increase of cores on microtubules (with dynein, dynactin and BicD2^FL) stood at 3.4 fold. Moreover, the percent of microtubule-bound cores colocalized with dynein in assay [4] was 75.6%.

Regarding “recombinant human cytoplasmic dynein (full-length dynein complex) (from UniProt Q14204 1-4646; Q13409 1-638; O43237 1-492; P63172 1-113; P63167 1-89; Q9NP97 1-96)”, the stoichiometry N (dynein dimers per HIV-1 core) in assay [5] is 11.6.
